# The RNAGym collection of RNA variant scans (doi:10.1073/pnas.2313332121)
# B1: TPR t1 (parent)
# chain: GACCAAUCUGCCCUCAGAGCUCGAGAACAUCUUCGGAUGCAGAGGAGGCAGGCUUCGGUGGCGCGAUAGCGCCAACGUCCUCAACCUCCAAUGCAUCCCACCACAUGAUGAUGCCUGAAGAGCCUUGGUUUUUUG
# Variants of: B1
# Assay: polymerase ribozyme fitness, log enrichment relative to wild type (log ratio); higher = more active; in vitro selection for triplet polymerase activity
# Procedure, shortened: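 Frozen incubation at −7 °C formed the core of a single, triplicate in vitro selection round applied to PCR-built, transcribed mutant libraries of each subunit of a heterodimeric triplet polymerase ribozyme. Extended constructs were gel-excised, captured with streptavidin beads and amplified by RT-PCR, and input and output libraries were Illumina-sequenced with a filter of ≥10 input reads and ≥1 read per output. Fitness is the logarithm of genotype enrichment relative to wild-type enrichment, with inverse-variance-weighted replicate averaging, and the logarithm is base 2.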
row,Variant,polymerase ribozyme fitness (log ratio)
1,GACCAAUCUGCCCUCAGAGCUCGAGAACAUCUUCCGAUGCAGAGGAGGCAGGCUUUGGUGGCGCGAUAGCGCCAACGUCCUCAACCUCCAAUGCAUCCCACCACAUGAUGAUGCCUGAAGAGCCUUGGUUUUUUG,-4.82
2,GACCAAUCUGCCCUCAGAGCUCGAGAACAUCUUCCGAUGCAGAGGAGGCAGGCUUCGGUGACGCGAUAGCGCCAACGUCCUCAACCUCCAAUGCAUCCCACCACAGGAUGAAGCCUGAAGAGCCUUGGUUUUUUG,-3.75
3,GACCAAUCUGCCCUCAGAGCUCGAGAACAUCUUCCAAUGAAGAGGAGGCAGGCUUCGGUGGCGCGAUAGCGCCAACGUCCUCAACCUCCAAUGUAUCCCACCACAUGAUGAUGUCUGAAGAGCCUUGGUUUUUUG,-6.41
4,GACCAAUCUGCCCUCAGAGCUCGAGAACAUCUUCCGAUUCAGAGGAGGCAGGCUUCGGUGGCGUGAUAGCGCCAACGUCCUCAACCUCCAAUGCAUCCCACCACAUGAUGAUGCCUGAAGAGCCUUGGUUUUUUG,-7.51
5,GACCAAUCUGCCCUCAGAGCUCGAGAACAUCUUCCGAUGCAGAGGAGGCAGGCUUCGGUGGCGCGAUAGCGCCAAGGUCCUCAACCUCCAAUGCAUCCCACCACAUGAUGAUGCCUGAAGAGCCUUGGUUUUUUG,-4.89
6,GACCAAUCUGCCCUCAGAGCUCGAGAACAUCUUCCGAUGCAGAGGAGGCAGGCUUCGGUGGCGCGAUAGCGCCAACGUCCUCAACCUCCAAUGCAUCCCACCACAUGAUGAUGCUUGUAGAGCCUUGGUUUUUUG,-7.09
7,GACCAAUCUGCCCUCAGAGCUCGAGAACAUCUUCCGAUGCAGAGGAGGCAGUCUUCGGUGGCGCGAUCGCGCCAACGUCCUCAACCUCCAAAGCAUCGCACCACAUGAUCAUGCCUUAAGAGCCUUGGUUUUUUG,-6.61
8,GACCAAUCUGCCCUCAGAGCUCGAGAACAUCUUCCGAUGCAGAGGAGGCAGGCUUCGGUGGCGCGAUAGCGCCAACGUCCUCAACCUCCAAUGCAUCCCACCACAUGAUGAUGCCUGAAGAGCCUUGGUUUUUUG,-4.55
9,GACCAAUCUGCCCUCAGAGCUCGAGAACAUCUUCCGAUGCAGAGGAGGCAGGCUUCGGUGGCGCGAUAGCGCCAAUUUCCUCAACCUCCAAUGCAUCCCACCACAUGAUGAUGCCUGAAGAGUCUUGGUUUUUUG,-6.87
10,GACCAAUCUGCCCUCAGAGCUCGAGAACAUCUUCCGAUGCAGAGGAGGCAGGCUUCGGUGGCGCGAUAGCGCCAACGUCCUCAAACUCCAAUGCAUCCCACCACAUGAAGAUGGCUGAAGAGCUUUGGUUUUUUG,-4.87
11,GACCAAUCUGCCCUCAGAGCUCGAGAACAUCUUCCGAUGCAGAGGAGGCAGGCUUCGGUGCCGCGAUAGCGCCAACGUCCUCAACCUCCAAUGCAUCGCACCACAUGAUGAUGCCUGAAGAGCCUUGGUUUUUUG,-5.36
12,GACCAAUCUGCCCUCAGAGCUCGAGAACAUCUUCCGAUGCAGAGGAGGCAGGCUUCGGUGGCGCGAUAGCGCCAACGUCCUCUACCUCCAAUGCAUCCCACCACAUGAUGAUGCCUGAAGGGCCUAGGUUUUUUG,-4.11
13,GACCAAUCUGCCCUCAGAGCUCGAGAACAUCUUCCGAUGCAGAGGCGGCAGGCUUCGGUGGCGCGAUAGCGCCAACGUCCUCAACCUCCAAUGCAUCCCACCACAUGAUGAUGCCUGUAGAGGCUUGGUUUUUUG,-4.04
14,GACCAAUCUGCCCUCAGAGCUCGAGAACAUCUUCCGAUGCAGAGGAGGCAGGUUUCGGUGGCGCGAUAGCGCCAACGUCCUCAACCUCCAAUGUAUCCCACCACAUGAUGAUGCCUGAAGCGCCUUGGUUUUUUG,-3.49
15,GACCAAUCUGCCCUCAGAGCUCGAGAACAUCUUCCGAUGCAGAGGAGGCAGGCUUCGGUGGCGCGAUAGCGCCAACGUCCUCAACCUCCAAUGCAUCCCACCACAUGAUGCUGCCUGAAGAGCCUUGGUUUUUUG,-4.47
16,GACCAAUCUGCCCUCAGAGCUCGAGAACAUCUUCCGAUGCAGAGGAGGCAGGCUUCGGUGGCGCGAUAGCGCCAACGUCCUCAACCUCCAAUGCGUCCCACCACAUGAUGAUGCCUGAAGAGCCUUGGUUUUUUG,-4.43
17,GACCAAUCUGCCCUCAGAGCUCGAGAACAUCUUCCGAUGCAGAGGAGGCAGGCUUCGGUGGCGCGAUAGCGCCAACGUCCUCAACCUCCAAUGCAUCCCACCACAUGAUGAUGCCUGAAGAGGCUUGGUUUUUUG,-2.8
18,GACCAAUCUGCCCUCAGAGCUCGAGAACAUCUUCCGAUGCAGAGGAGGCAGGCUUCGGUGCCGCGAUAGCGCCAACGUGCUCAACCUCCAAUGCAUCCCACCACAUGAUGAUGCCUGAAGAGCCUUGGUUUUUUG,-6.99
19,GACCAAUCUGCCCUCAGAGCUCGAGAACAUCUUCCGAUGCAGAGGAGGAAGGCUUCGGUGGCGCGAUAGCGCCAACGUCCUCAACCUCCAAUGCAUCCCACCACAUGAUGAGGCCUGAAGAGCCUUGGUUUUUUG,-6.16
20,GACCAAUCUGCCCUCAGAGCUCGAGAACAUCUUCCGAUGCAGAGGAAGCAGGCUUUGGUGGCGCGAUAGCGCCAACGUCCUCAACCUCCAAUGCAUCCCACCACAUGAUGGUGCCUGAAGAGCCUUGGUUUUUUG,-5.32
21,GACCAAUCUGCCCUCAGAGCUCGAGAACAUCUUCCGAUGCAGAGGAGGCAGGCUUCGGUGACGCGAUAGCGCCAACGUCCUCAACCUCCAAUGCAUCCCACCACAUGAUGAUGCCUGAAGUGCCUAGGUUUUUUG,-3.79
